This is an account of results in patent EP4659811A1 (Université de Strasbourg, dated 2025).

Numbering of substitutions follows the chain as printed.

B1: antibody C6P8 (antibody, V domains shown)
VH: EVQLVESGGGLVQPGGSLKLSCAASGFTFSGSEIHWVRQASGKGLEWIGRVRSRANRHATGYSESVKGRFTISRDDSKNTASLQLNSLKIEDTAVYYCTGVRGVISRYFAMDVWGQGTTVTVSS
VL: SYVLTQTPSVSVAPGQTARITCGGNNIGSNSVHWYQQKPGQAPILVVYDDSERPSGIPERFSGSNSGNTATLTISRVEGGDEADYQCQVWDRRGDLLVFGGGTKLTVL
B2: antibody B9P6 (antibody, V domains shown)
VH: EVQLVESGGGLVQPGGSLRLSCAASGFTFRSYTMDWVRQAPGKGLEWVSCISGSSNHKYYADSVRGRFTISRDNAKNSLFLQMNSLRAEDSAVYYCAREDDILTPLYGMDVWGPGTTVTVSS
VL: EIVLTQSPDTLSLSPGARATLSCRASQSVRSNYLAWYQQKPGQAPRLLIYGASSRATAIPDRFSGSGSGTDFTLTITRLEPEDFAVYYCHQYGSSPRTFGQGTKVEIK
B3: antibody G11P1 (antibody, V domains shown)
VH: B2 VH with T33S, C50Y, H57Q, A61T
VL: B2 VL with G93A
B4: antibody E9P7 (antibody, V domains shown)
VH: B2 VH with A23T, F80L
VL: B2 VL
B5: antibody E11P6 (antibody, V domains shown)
VH: B2 VH with T33S, C50Y, H57Q, A61T
VL: B2 VL with F72L, G93A
B6: antibody B9P4 (antibody, V domains shown)
VH: EVQLVESGGGVVQPGRSLRLSCAASGFTFSSYGMHWVRQAPGKGLEWVAVISKDGSNKYEADFVKGRFTISRDNSKNTLYLQMNSLRAEDTAVYYCAKIPLRRYSDSGDYSSGDFWGQGTLVTVSS
VL: DVVMTQSPLSLTVTLGQPASISCRSSENLVYSDGNTYLSWFQQRPGQSPRRLIYKVSTRDSGVPDRFSGSGSGTDFTLKISRVEAEDVGVYYCMQTTHWPPLTFGGGTKVEIK
B7: antibody C10P7 (antibody, V domains shown)
VH: QVQLVQSGSEVKKPGTSVKVSCKASGETYVGHSISWVRQAPGAGLEWMGWISLHNGNVKYAQKLQGRVTMTTDTSTITAYMELRNLTSDDTAVYYCARVPMKIYGVIVFGEYYYDQLDVWGQGTTVTVSS
VL: QSALTQPPSASGSPGQSVTISCTGTGSDVGGYNYVSWYQQHPGKAPKLMIYEVSKRPSGVPDRFSGSKSGNTASLTVSGLQAEDEADYYCSSYAGSKVVFGGGTKLTVL
B8: antibody E10P2 (antibody, V domains shown)
VH: EVQLLESGGALVQPGGSLRLSCAASGFTFRSYAMNWVRQAPGKGLEWVSSLSSSGTTTYYADSVKGRFTISRDNSKNTMYLQMDSLRGEDTAVYYCAKDRNAQWLGSEPLDPWGQGTLVTVSS
VL: EIVLTQSPGTLSLSPGERATLSCRASQSVSSSYLAWYQQKPGQAPRLLIYGASSRATGIPDRFSGSGSGTDFTLTISSLQPDDFAIYYCQQAYTFPWTFGQGTKLEIK
B9: antibody B7P3 (antibody, V domains shown)
VH: EVQLVESGGGVVQPGRSLRLSCAASGFTFSNFGMHWVRQPPGKGLEWVAVISYDGSDKFYADSVKGRFTISRDNFKNTLYVQMNSLRAEDTAVYYCAKDRVRTKYYYDHSGPFDYWGRGTLVTVSS
VL: SYVLTQPPSVSVAPGQTARIACGGNNIGSKSVHWYQQRPGQAPVLVVYDDDDRPSGIPERFSGSNSGNTATLTISRVEAGDEADYFCQVWMTNSDRPVFGGGTKLTVL
B10: antibody B3P3 (antibody, V domains shown)
VH: EVQLVESGGGVVQPGRSLRLSCVTSGFTFESYGIHWVRQAPGKGLEWVAVISNDGSIEDYAGSVKGRFTISGDKAKNTVYLQVNSLRPDDTAVYYCAKDAVGITGGSLYYSYGMDVWGQGTTVTVSS
VL: DIQMTQSPSPLSAFIGGRVTITCRASQTIKNYLNWYQQKPGEAPKLLIYTASTLQNGVPSRFSGSRSGTDFTLTITSLQPEDFATYYCQQSYSAPYSFGQGTKLEIK
B11: antibody C4P7 (antibody, V domains shown)
VH: EVQLLESGGGLVQPGGSLRLSCAASGFTFSSYAMSWVRQAPGKGLEWVSSLTGSGGSTYYRDSVKGRFTIFRDNSKKTLYMQMNSLRAEDTAVYYCAKEGAYSYDFWYFDLWGRGTLVTVSS
VL: EIVLTQSPGTLSLSPGERATLSCRASQTVSGNYLAWYQQKPGQSPSLLIYGASSRATGIPDRFTGSGSGTDFTLTISRLEPADFAVYYCQQYGRPLTFGGGTKVEIK
B12: antibody C10P8 (antibody, V domains shown)
VH: QVQLQESGPGLVKPSQTLSLTCTVSGGSISSGRYYWSWIRQPAGKGLEWIGRVYFSGSTNYNPSLKNRVTLSVDTSKNQFSLKLSSVIAADTAVYYCARAVRDYGDSYSFDYWGQGTLVTVSS
VL: QSALTQPASVSGSPGQSITISCTGSSSDIGGYNYVSWYQVHPGKAPHLKIYDVVNRPSGVSNRFPGSKSGNTASLTISGLLADDEAYYYCCSYSIRGTPVFGGGTKLTVL
B13: antibody G7P3 (antibody, V domains shown)
VH: EVQLVESGGGLVQPGGSLRLSCAASGFSFGSYSMNWVRQAPGKGLEWVSHISSGSSSIYYADSVKGRFTISRDSVKNSLYLQMNNLRAEDTAVYYCARGWTGYDAFDIWGQGTMVTVSS
VL: DIQMTQSPSSLSASVGDRVTITCRASQVISNYLAWYQEKPGKVPKLLIYAASTLQSGVPSRFSGSGTGTDFTLTIRSLQPEDVATYYCQKYNNAPLTFGGGTKVEIK
B14: antibody E8P5 (antibody, V domains shown)
VH: B13 VH with Q13H, S28R, S31T, Y95F
VL: B13 VL with K42E, R76S
B15: antibody B10P5 (antibody, V domains shown)
VH: EVQLVESGGGLVQPGGSLRLSCSASGFTFSTYTMNWVRQAPGKGLDWVSYISSRSTSIYYADSVKGRFTISRDNAKNSLYLHMTSLRAEDTAVYYCVRDRGYYGSNWFDSWGQGTLVTVSS
VL: QSALTQPRSVSGSPGQSVTISCTGTSSDVGNYNYVSWYQQHPGKAPRLMISDVTKRPSGVPDRFSGSKSGNTASLTISGLQAEDEGDYYCCAYAGSYTLVFGGGTKLTVL
B16: antibody F11P5 (antibody, V domains shown)
VH: QVQLVQSGSELKKPGASVKVSCKASAYTFTNSAINWVRQAPGQGLEWMGWINTNTGNPAYAQGFRGRFVFSLDTSVSEAYLQISNLKAEDTATYYCTVPYNFGGDHNSYYFFGVDIWGQGTTVTVSS
VL: QSALTQPASVSGSPGQSITISCTGSSSDVGSYNLVSWFQQHPAKAPKVMIYEGTKRPSGVSDRFSGSKSGNTASLTISGLQAEDEADYYCCSYAGSNTFVFGTGTKVSVL
B17: antibody E10P5 (antibody, V domains shown)
VH: QVQLQESGPGLVKPSQTLSLTCSVSGGSISSGNYYWSWIRQPAGKGLEWIGRIYTSGNTNYNPSLKSRVTMSVDTSKNQFSLKLSSVTATDTAVYYCARVRRDGYNAFDYWGQGTLVTVSS
VL: SYELTQPPSVSVSPGQTASIDCSGHNLGDKFTCWYQQKPGQSPVLVIYQDSKRPSGIPERFSGSNSGNTATLTISGTQAMDEADYYCQAWDSDTLYVFGTGTTVTVL

One experiment concerns the target T1, VP1 pentamer of BKV genotype IV (recombinant) (BK virus genotype IV, UniProt P14996 30-300).
T1 construct: also called GIV; VP1 BKV subtype IV; not shown: N-terminal His-tag of pESPRIT002; C-terminal biotin acceptor peptide (BAP) of pESPRIT002
In words: ELISA, coated VP1 pentamer.
Consider B1, for which the 50% effective concentration (EC50) is 4 µg/mL.
Consider B2, for which the EC50 was found to be 0.12 µg/mL.
Regarding B3, the EC50 was determined as 0.035 µg/mL.
For B4, the concentration for a half-maximal effect (EC50) was determined as 0.2 µg/mL.
As to B5, the EC50 worked out at 0.12 µg/mL.
Regarding B6, the EC50 was no less than 10 µg/mL.
For B7, the half-maximal effective concentration (EC50) worked out at 18 µg/mL.
For B8, the binding result was “no binding (tested: starting at 50 µg/mL)”.

For another experiment, the target named is T2, VP1 pentamer of BKV genotype II (recombinant) (BK virus genotype II, UniProt P14996 30-300).
T2 construct: also called GII; VP1 geno II pentamer; not shown: N-terminal His-tag of pESPRIT002; C-terminal biotin acceptor peptide (BAP) of pESPRIT002
In words: ELISA, coated VP1 pentamer.
Regarding B1, the EC50 is 3 µg/mL.
Regarding B2, the EC50 stood at 0.035 µg/mL.
For the molecule B3, the EC50 worked out at 0.055 µg/mL.
As for B4, the half-maximal effective concentration (EC50) came to 0.1 µg/mL.
In the case of B5, the EC50 was 0.09 µg/mL.
As to B6, the concentration giving a half-maximal response (EC50) was no less than 7 µg/mL.
Same read-out and setting: the result for B7 reads 8 µg/mL.
On to B8, for which the binding result is recorded as “no binding (tested: starting at 50 µg/mL)”.

For a further experiment, the target named is VP1 capsid protein on BKV pseudovirions of genotype Ia (BK-D; JF894228) (BK virus genotype Ia (BK-D)). In words: cell-based or functional assay.
Turning to B9, the “Neutralization PSV IC50” value is 0.0004 µg/mL.
Still for that read-out and setting: the value for B10 was greater than 50 µg/mL.
Take B1: the “Neutralization PSV IC50” value was 6.92 µg/mL.
Regarding B2, the “Neutralization PSV IC50” value turned out to be 0.0371 µg/mL.
The same measure, in the same setting: the result for B3 reads 0.112 µg/mL; that for B4, 0.277 µg/mL.
On to B5, for which the “Neutralization PSV IC50” value came out at 0.216 µg/mL.
Same read-out and setting: the value for B11 was 0.493 µg/mL.
With B6, the “Neutralization PSV IC50” value was found to be 4.96 µg/mL.
Turning to B7, the “Neutralization PSV IC50” value turned out to be 6.56 µg/mL.
As to B12, the “Neutralization PSV IC50” value was greater than 12.5 µg/mL.
Take B13: the “Neutralization PSV IC50” value came to 0.0008 µg/mL.
As to B14, the “Neutralization PSV IC50” value amounted to 0.0013 µg/mL.
Regarding B15, the “Neutralization PSV IC50” value was greater than 50 µg/mL.
On the same count and under the same terms, the result for B8 reads 1.64 µg/mL; that for B16, 0.492 µg/mL.
Regarding B17, the “Neutralization PSV IC50” value was found to be 0.0004 µg/mL.

The next experiment addresses VP1 capsid protein on BKV pseudovirions of genotype II (GBR-12; AB263920) (BK virus genotype II (GBR-12)). In words: cell-based or functional assay.
With B9, the “Neutralization PSV IC50” value was found to be 3.43 µg/mL.
Consider B10, for which the “Neutralization PSV IC50” value is greater than 50 µg/mL.
On the same count and under the same terms, the value for B1 was 0.44 µg/mL.
With B2, the “Neutralization PSV IC50” value worked out at 0.0002 µg/mL.
Take B3: the “Neutralization PSV IC50” value came to 0.0008 µg/mL.
Turning to B4, the “Neutralization PSV IC50” value worked out at 0.0003 µg/mL.
On to B5, for which the “Neutralization PSV IC50” value was 0.0028 µg/mL.
In the case of B11, the “Neutralization PSV IC50” value was found to be 0.0609 µg/mL.
B6: the “Neutralization PSV IC50” value was found to be 16.3 µg/mL.
Still for that read-out and setting: the result for B7 reads 11.2 µg/mL; that for B12, greater than 12.5 µg/mL.
For the molecule B13, the “Neutralization PSV IC50” value was found to be 0.0054 µg/mL.
With B14, the “Neutralization PSV IC50” value came to 0.004 µg/mL.
With B15, the “Neutralization PSV IC50” value was greater than 50 µg/mL.
On to B8, for which the “Neutralization PSV IC50” value amounted to 20.1 µg/mL.
With B16, the “Neutralization PSV IC50” value came out at 1.56 µg/mL.
As for B17, the “Neutralization PSV IC50” value turned out to be 0.0433 µg/mL.

A further experiment has as its target VP1 capsid protein on BKV pseudovirions of genotype IVc2 (A-66H; AB369093) (BK virus genotype IVc2 (A-66H)). Nature of the experiment: cell-based or functional assay.
With B9, the “Neutralization PSV IC50” value was greater than 50 µg/mL.
On the same count and under the same terms, the result for B10 reads greater than 50 µg/mL; that for B1, 1.74 µg/mL; that for B2, 0.0176 µg/mL.
Take B3: the “Neutralization PSV IC50” value was 0.02 µg/mL.
The same measure, in the same setting: the result for B4 reads 0.0333 µg/mL.
As for B5, the “Neutralization PSV IC50” value is 0.0452 µg/mL.
Consider B11, for which the “Neutralization PSV IC50” value is greater than 3.12 µg/mL.
Turning to B6, the “Neutralization PSV IC50” value is greater than 50 µg/mL.
Regarding B7, the “Neutralization PSV IC50” value was greater than 50 µg/mL.
As to B12, the “Neutralization PSV IC50” value is greater than 12.5 µg/mL.
Regarding B13, the “Neutralization PSV IC50” value was greater than 50 µg/mL.
As to B14, the “Neutralization PSV IC50” value was greater than 50 µg/mL.
Same read-out and setting: the value for B15 was greater than 50 µg/mL; that for B8 was greater than 50 µg/mL; that for B16 was 46.5 µg/mL.
Take B17: the “Neutralization PSV IC50” value is greater than 50 µg/mL.
